{"source": "paper PMC12618757", "biological_target": "EGFP-mPiezo1 (murine Piezo1 fused to EGFP) (murine) (UniProt E2JF22)", "sequence (E2JF22 whole entry, the tested form may be a part)": "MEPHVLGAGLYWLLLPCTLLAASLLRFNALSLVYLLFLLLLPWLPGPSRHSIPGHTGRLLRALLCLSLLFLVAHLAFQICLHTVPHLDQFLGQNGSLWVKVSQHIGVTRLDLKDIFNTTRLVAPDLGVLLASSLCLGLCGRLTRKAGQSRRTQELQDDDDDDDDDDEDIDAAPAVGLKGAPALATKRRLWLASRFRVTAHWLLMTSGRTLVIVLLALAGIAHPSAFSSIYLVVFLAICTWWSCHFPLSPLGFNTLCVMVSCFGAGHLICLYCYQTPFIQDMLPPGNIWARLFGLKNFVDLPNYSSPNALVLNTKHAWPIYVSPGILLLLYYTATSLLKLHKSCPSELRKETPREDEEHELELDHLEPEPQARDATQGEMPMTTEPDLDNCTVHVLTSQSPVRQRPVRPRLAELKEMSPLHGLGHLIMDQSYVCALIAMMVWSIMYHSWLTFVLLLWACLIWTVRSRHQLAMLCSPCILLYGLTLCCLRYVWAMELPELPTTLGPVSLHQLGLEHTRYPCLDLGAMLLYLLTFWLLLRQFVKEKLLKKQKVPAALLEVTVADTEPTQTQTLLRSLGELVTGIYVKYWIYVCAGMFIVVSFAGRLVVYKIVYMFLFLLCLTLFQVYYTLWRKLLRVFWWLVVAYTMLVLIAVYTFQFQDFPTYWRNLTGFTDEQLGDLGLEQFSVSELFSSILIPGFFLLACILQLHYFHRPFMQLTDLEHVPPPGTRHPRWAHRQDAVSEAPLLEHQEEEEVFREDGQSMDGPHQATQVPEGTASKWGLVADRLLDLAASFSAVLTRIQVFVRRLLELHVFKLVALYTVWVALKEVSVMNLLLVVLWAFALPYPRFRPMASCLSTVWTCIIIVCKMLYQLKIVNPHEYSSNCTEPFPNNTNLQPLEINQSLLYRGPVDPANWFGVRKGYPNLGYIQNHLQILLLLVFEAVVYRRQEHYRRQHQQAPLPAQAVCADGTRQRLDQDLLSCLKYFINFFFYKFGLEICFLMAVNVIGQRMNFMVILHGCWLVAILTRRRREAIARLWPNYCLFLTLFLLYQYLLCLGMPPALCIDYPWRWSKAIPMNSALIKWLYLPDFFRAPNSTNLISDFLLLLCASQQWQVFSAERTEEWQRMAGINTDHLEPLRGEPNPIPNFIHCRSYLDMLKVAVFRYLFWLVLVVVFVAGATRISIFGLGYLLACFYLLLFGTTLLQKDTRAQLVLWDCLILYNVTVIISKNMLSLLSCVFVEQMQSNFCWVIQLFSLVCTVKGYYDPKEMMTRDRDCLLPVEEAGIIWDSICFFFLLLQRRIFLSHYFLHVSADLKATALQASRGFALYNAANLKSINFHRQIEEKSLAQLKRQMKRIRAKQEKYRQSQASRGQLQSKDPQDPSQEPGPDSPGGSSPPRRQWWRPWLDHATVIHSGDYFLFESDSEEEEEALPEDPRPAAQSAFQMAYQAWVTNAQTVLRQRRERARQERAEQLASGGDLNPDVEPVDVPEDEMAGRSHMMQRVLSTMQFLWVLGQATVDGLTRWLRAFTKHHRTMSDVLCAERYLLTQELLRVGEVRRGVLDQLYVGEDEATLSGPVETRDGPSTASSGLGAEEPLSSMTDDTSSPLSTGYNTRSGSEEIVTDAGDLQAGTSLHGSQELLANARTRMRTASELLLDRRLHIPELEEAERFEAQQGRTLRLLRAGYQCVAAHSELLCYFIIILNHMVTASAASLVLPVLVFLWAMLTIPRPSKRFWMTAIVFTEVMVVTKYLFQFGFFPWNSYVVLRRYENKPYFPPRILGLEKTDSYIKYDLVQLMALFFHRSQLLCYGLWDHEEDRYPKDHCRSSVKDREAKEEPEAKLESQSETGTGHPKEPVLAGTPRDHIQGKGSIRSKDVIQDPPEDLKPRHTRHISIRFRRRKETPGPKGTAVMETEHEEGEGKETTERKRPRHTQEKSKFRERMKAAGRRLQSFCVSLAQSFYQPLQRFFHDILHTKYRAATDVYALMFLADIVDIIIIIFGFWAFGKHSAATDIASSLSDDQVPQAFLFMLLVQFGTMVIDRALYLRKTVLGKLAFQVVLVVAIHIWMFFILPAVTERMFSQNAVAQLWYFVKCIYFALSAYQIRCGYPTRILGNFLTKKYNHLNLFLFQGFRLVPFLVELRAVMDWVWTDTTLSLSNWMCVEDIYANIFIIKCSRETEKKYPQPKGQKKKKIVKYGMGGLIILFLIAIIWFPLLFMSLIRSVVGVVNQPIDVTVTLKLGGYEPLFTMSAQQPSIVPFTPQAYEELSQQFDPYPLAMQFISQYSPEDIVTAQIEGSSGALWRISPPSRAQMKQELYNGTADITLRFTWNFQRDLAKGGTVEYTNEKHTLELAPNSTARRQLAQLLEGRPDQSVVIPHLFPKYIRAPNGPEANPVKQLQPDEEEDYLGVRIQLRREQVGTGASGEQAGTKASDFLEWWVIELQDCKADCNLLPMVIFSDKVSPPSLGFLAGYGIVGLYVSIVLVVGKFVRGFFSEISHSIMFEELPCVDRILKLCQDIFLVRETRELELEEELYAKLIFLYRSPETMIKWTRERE"}
{"substance": "LecB-S22A mutant (natural protein)", "values": [{"measurement": "average stretch-induced current at −80 mmHg, EGFP-mPiezo1-overexpressing H1299 cells, LecB-S22A for 3 h (not significantly changed compared to untreated control cells)", "result": -36.5, "unit": "pA"}]}
